Data reported in US7276481B2, “Method and composition for treatment of skeletal dysplasias” (ProChon Biotech Ltd., priority 2001, dated 2007).
“Also recorded” adds a separate entry of the source. Like-named read-outs stand apart in the source and are kept apart here.

Legend:
[1] = biological target: T1, natriuretic peptide receptor on C3H10T1/2 cells (Mus musculus, UniProt Q6VVW5); test: Biotrak enzyme immunoassay of cGMP elicited on C3H10T1/2 cells; type: cell-based
T1 construct: endogenous in cells; host or cells: C3H10T1/2 cells
T1 sequence (Q6VVW5 23-1047 limits assumed): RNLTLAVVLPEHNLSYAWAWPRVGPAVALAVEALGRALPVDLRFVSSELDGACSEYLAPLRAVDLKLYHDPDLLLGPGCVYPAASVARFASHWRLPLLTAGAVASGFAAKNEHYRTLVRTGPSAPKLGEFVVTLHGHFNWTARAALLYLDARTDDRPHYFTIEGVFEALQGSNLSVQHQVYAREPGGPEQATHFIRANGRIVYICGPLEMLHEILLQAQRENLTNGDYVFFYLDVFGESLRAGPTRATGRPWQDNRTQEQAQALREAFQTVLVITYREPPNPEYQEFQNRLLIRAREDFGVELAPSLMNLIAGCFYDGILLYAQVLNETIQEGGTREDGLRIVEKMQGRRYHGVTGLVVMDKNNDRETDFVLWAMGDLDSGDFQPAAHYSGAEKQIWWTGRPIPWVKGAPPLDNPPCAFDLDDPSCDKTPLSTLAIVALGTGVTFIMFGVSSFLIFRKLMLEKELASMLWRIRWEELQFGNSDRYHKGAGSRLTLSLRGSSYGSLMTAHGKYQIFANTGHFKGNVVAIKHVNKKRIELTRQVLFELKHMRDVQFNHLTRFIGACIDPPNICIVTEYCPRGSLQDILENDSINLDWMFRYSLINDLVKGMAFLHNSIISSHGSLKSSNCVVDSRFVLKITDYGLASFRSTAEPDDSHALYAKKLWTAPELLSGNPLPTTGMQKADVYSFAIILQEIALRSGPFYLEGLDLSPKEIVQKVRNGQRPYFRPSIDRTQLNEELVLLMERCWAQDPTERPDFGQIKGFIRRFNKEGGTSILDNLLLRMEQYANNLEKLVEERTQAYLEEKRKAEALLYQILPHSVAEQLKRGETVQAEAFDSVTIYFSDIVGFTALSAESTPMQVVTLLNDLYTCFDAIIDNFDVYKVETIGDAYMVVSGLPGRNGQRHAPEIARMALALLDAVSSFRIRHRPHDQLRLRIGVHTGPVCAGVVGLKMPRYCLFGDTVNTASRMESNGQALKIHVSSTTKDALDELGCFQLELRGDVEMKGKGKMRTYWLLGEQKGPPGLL
Protocol: All peptide variants were analyzed for activity using the Biotrak enzyme immunoassay (EIA, Amersham) that measures the amount of secondary messenger, cyclic GMP (cGMP), elicited after activation of the natriuretic peptide receptor by the peptide on C3H10T1/2 cells. Amino acid substitutions are marked in bold and underlined. The assay was performed for CNP and variants at a concentration of 10^−6 M. The values are given as the percent of relative binding compared to CNP, where CNP 1-22 and CNP 5-22 yield 100% binding.

[2] = tested on: femora derived from achondroplasia model mice (Ach369, Ach374) and wild type littermates; test: Ex vivo femoral bone culture; conditions: for bone elongation / longitudinal growth in bone culture (in words): femora of Ach and wild type mice, versus vehicle or untreated; for Growth rate (days 0-3) / Growth rate (days 3-15): CNP treated femora, 40 units=1 mm
Protocol: Femora derived from achondroplasia model mice (Ach369 knock-in mice carry the Gly to Cys mutation at position 369, analogous to position 375 in humans or Ach374 knock-in mice that carry the Gly to Arg mutation at position 374, analogous to position 380 in humans) were dissected from P0 wild type, heterozygote and homozygote littermates and cultured in the presence of natriuretic peptides for 15 days.
Protocol for Bone Culture: Femoral bone cultures were performed by excising the hind limbs of mice. The limbs were carefully cleaned from the surrounding tissue (skin and muscles) and the femora exposed. The femora were removed and further cleared from tissue remains and ligaments. The femora were measured for their initial length, using a binocular with an eyepiece micrometer ruler. The bones were grown in 1 ml of medium (α-MEM supplemented with penicillin (100 units/ml), streptomycin (0.1 mg/ml), nystatin (12.5 units/ml), BSA (0.2%), β-glycerophosphate (1 mM) and freshly prepared ascorbic acid (50 μg/ml)) with varying concentrations of NPs or CNP variants in a 24 well tissue culture dish. The bones were cultured for 15 days while measurements of bone length and medium replacement were performed every three days. At the end of the experiment, the growth rate of the bones was determined. The growth rate of bones is calculated from the slope of a linear regression fit on the length measurements obtained from day 3 to 15. Units given can be converted to length, 40 units=1 mm.

[3] = 125Iodine-labeled GH in blood after IP administration; type: in vivo, mice; conditions: 125Iodine-labeled GH IP, one hour after a pulse of unlabelled GH
From the text: To determine whether GH can enter the growth plate from the circulation, GH was labeled with ^125Iodine and administered to mice IP, one hour after a pulse of unlabelled GH. Blood samples were collected at several time points and analyzed on a protein gel.

[4] = tested on: fetal bone organ culture from wild type (normal) animals; conditions: wild type fetal bones; cited from earlier work
[5] = Table 2, cGMP assay, compared to CNP
[6] = Table 3, cGMP values at 10^-6 M, compared to CNP (CNP 1-22 and CNP 5-22 = 100%)

| Substance | cGMP response as percent of CNP [1, 6] [%] | further results |
| --- | --- | --- |
| C F G L K L D R I G S A S G L G C (CFGLKLDRIGSASGLGC; peptide variant) [SEQ ID NO:10] |  | activity in cGMP assay (in words) [1]: increases activity; cGMP response as percent of CNP [1, 5]: 138.1%; activity in cGMP assay (in words) ([1]; listed as SEQ ID NO: 10): retains high activity; bone elongation / longitudinal growth in bone culture (in words) [2]: induced elongation of Ach369 femora even at a concentration similar to that of CNP |
| GH: growth hormone labeled with 125Iodine and administered to mice IP |  | labeling of blood samples on a protein gel over time [3]: increases in the first 2-3 hours, can still be observed at 6 hours and almost disappears at 24 hrs |
| C-type natriuretic peptide [CNP] | 100 | induction of bone elongation (rank order) [4]: more than BNP and much more than ANP; Growth rate (days 0-3) ([2]; +/+ wild type (wt)): 0.25 mm/day; Growth rate (days 3-15) ([2]; +/+ wild type (wt)): 0.143 mm/day; Growth rate (days 0-3) ([2]; Ach/+ heterozygote): 0.228 mm/day; Growth rate (days 3-15) ([2]; Ach/+ heterozygote): 0.085 mm/day; Growth rate (days 0-3) ([2]; Ach/Ach homozygote): 0.177 mm/day; Growth rate (days 3-15) ([2]; Ach/Ach homozygote): 0.07 mm/day; bone elongation / longitudinal growth in bone culture (in words) [2]: increased the total longitudinal growth of femora; also recorded: increased in size at a rate higher than that of the untreated limbs |
| C F G L K L A R I G S A S G L G C (CFGLKLARIGSASGLGC; peptide variant) [SEQ ID NO:26] | 5.755 |  |
| C F G L K L D K I G S M S G L G C (CFGLKLDKIGSMSGLGC; peptide variant) [SEQ ID NO:49] | 21.543 |  |
| C F G L K L D R I G A Q S - - - C (CFGLKLDRIGAQSC; peptide variant) [SEQ ID NO:15] |  | cGMP response as percent of CNP [1, 5]: 20.6% |
| C F G L K L D R I G T M S G L G C (CFGLKLDRIGTMSGLGC; peptide variant) [SEQ ID NO:56] | 74.080 |  |
| C F G L K L D R I G S K S G L G C (CFGLKLDRIGSKSGLGC; peptide variant) [SEQ ID NO:67] | 66.910 |  |
| C F G L K L D R I G S M S G A G C (CFGLKLDRIGSMSGAGC; peptide variant) [SEQ ID NO:63] | −1.111 |  |
| C F G I K L D R I G S M S G L G C (CFGIKLDRIGSMSGLGC; peptide variant) [SEQ ID NO:41] | 47.395 |  |
| C H F G L K L D R I G A Q S - - C (CHFGLKLDRIGAQSC; peptide variant) [SEQ ID NO:13] |  | cGMP response as percent of CNP [1, 5]: 26.5% |
| C F G L K L E R I G S M S G L G C (CFGLKLERIGSMSGLGC; peptide variant) [SEQ ID NO:35] | 9.450 |  |
| C M G L K L D R I G S M S G L G C (CMGLKLDRIGSMSGLGC; peptide variant) [SEQ ID NO:30] | −1.341 |  |
| C F G L K L D R I G S M S L L G C (CFGLKLDRIGSMSLLGC; peptide variant) [SEQ ID NO:59] | 15.289 |  |
| C H G L K L D R I G S M S G L G C (CHGLKLDRIGSMSGLGC; peptide variant) [SEQ ID NO:33] | 5.699 |  |
| C F G L K L M R I G S M S G L G C (CFGLKLMRIGSMSGLGC; peptide variant) [SEQ ID NO:39] | 7.784 |  |
| C H G L K L D R I G S A S G L G C (CHGLKLDRIGSASGLGC; peptide variant) [SEQ ID NO:70] | 3.058 |  |
| C F G L K L D R I G S M S G Q G C (CFGLKLDRIGSMSGQGC; peptide variant) [SEQ ID NO:61] | −3.474 |  |
| C F G L K I D R I G S M S G L G C (CFGLKIDRIGSMSGLGC; peptide variant) [SEQ ID NO:46] | 88.117 |  |
| C T G L K L D R I G S M S G L G C (CTGLKLDRIGSMSGLGC; peptide variant) [SEQ ID NO:34] | −6.903 |  |
| C H F G L K L D R I G S M S - - C (CHFGLKLDRIGSMSC; peptide variant) [SEQ ID NO:11] |  | cGMP response as percent of CNP [1, 5]: 25.9% |
| C F G L K L D R I G S Q - - - - C (CFGLKLDRIGSQC; peptide variant) [SEQ ID NO:18] |  | cGMP response as percent of CNP [1, 5]: 11.8% |
| C I G L K L D R I G S M S G L G C (CIGLKLDRIGSMSGLGC; peptide variant) [SEQ ID NO:28] | 13.899 |  |
| C F G L K L D R I G S W S G L G C (CFGLKLDRIGSWSGLGC; peptide variant) [SEQ ID NO:65] | 66.450 |  |
| C F G L K L N R I G S M S G L G C (CFGLKLNRIGSMSGLGC; peptide variant) [SEQ ID NO:37] | 17.235 |  |
| C A G L K L D R I G S M S G L G C (CAGLKLDRIGSMSGLGC; peptide variant) [SEQ ID NO:6] |  | cGMP response as percent of CNP [1, 5]: 43.8% |
